Measured values reported in patent US8614103B2, “Compositions and methods for treating sphingosine-1-phosphate (S1P) related ocular diseases and conditions” (Lpath, Inc., priority 2006, dated 2013).

Key:
[1] = Competitive ELISA for specificity / cross-reactivity against bioactive lipids; type: binding; conditions: for cross-reactivity to sphingosylphosphorylcholine (SPC): competitor SPC
Experimental: Screening of serum and cell supernatant for S1P-specific antibodies was by direct ELISA using a thiolated SIP analog as the antigen. A standard ELISA was performed, as described below, except that 50 ul of sample (serum or cell supernatant) was diluted with an equal volume of PBS/0.1% Tween-20 (PBST) during the primary incubation. ELISAs were performed in 96-well high binding ELISA plates (Costar) coated with 0.1 μg of chemically-synthesized thiolated-S1P conjugated to BSA in binding buffer (33.6 mM Na2CO3, 100 mM NaHCO3; pH 9.5). The thiolated-S1P-BSA was incubated at 37° C. for 1 hr. at 4° C. overnight in the ELISA plate wells. The plates were then washed four times with PBS (137 mM NaCl, 2.68 mM KCl, 10.14 mM Na2HPO4, 1.76 mM KH2PO4; pH 7.4) and blocked with PBST for 1 hr. at room temperature. For the primary incubation step, 75 uL of the sample (containing the S1P to be measured), was incubated with 25 uL of 0.1 ug/mL anti-S1P mAb diluted in PBST and added to a well of the ELISA plate. Each sample was performed in triplicate wells. Following a 1 hr. incubation at room temperature, the ELISA plates were washed four times with PBS and incubated with 100 ul per well of 0.1 ug/mL HRP goat anti-mouse secondary (Jackson Immunoresearch) for 1 hr. at room temperature. Plates were then washed four times with PBS and exposed to tetramethylbenzidine (Sigma) for 1-10 minutes. The detection reaction was stopped by the addition of an equal volume of 1M H2SO4. Optical density of the samples was determined by measurement at 450 nm using an EL-X-800 ELISA plate reader (Bio-Tech).
For cross reactivity, a competitive ELISA was performed as described above, except for the following alterations. The primary incubation consisted of the competitor (S1P, SPH, LPA, etc.) and a biotin-conjugated anti-S1P mAb. Biotinylation of the purified monoclonal antibody was performed using the EZ-Link Sulfo-NHS-Biotinylation kit (Pierce). Biotin incorporation was determined as per kit protocol and ranged from 7 to 11 biotin molecules per antibody. The competitor was prepared as follows: lipid stocks were sonicated and dried under argon before reconstitution in DPBS/BSA [1 mg/ml fatty acid free BSA (Calbiochem) in DPBS (Invitrogen 14040-133)]. Purified anti-S1P mAb was diluted as necessary in PBS/0.5% Triton X-100. Competitor and antibody solutions were mixed together so to generate 3 parts competitor to 1 part antibody. A HRP-conjugated streptavidin secondary antibody (Jackson Immunoresearch) was used to generate signal.
The humanized variants were tested for specificity in a competitive ELISA assay (FIG. 1) against S1P and several other biolipids. This assay has the added benefit to allow for epitope mapping.

[2] = tested on: endothelial cell (EC) infiltration; test: In vivo Matrigel plug assay, S1P plugs, EC infiltration; design: species or system mouse; conditions: systemic administration every 48 hrs
Experimental: Based on in vivo studies showing that S1P increased endothelial capillary growth into subcutaneously implanted Matrigel plugs, we speculated that SPHINGOMAB could reduce de novo BV formation in vivo. To investigate this, we employed the in vivo Matrigel Plug assay for neovascularization. In one set of experiments, Matrigel was supplemented with either 1 μM S1P, 0.5 μg/mL bFGF or 1 μg/mL VEGF and then […]. into mice (n=4). After 10 days, the mice were heparinized and injected with the fluorescent lectin, Isolectin B4-FITC, which binds to adhesion molecules expressed by vascular EC that form the growing BVs. The plugs were then excised, frozen in OCT, sectioned and viewed for FITC-stained BVs.
Sections of the plugs were then stained with hemotoxyln & eosin for evaluation of EC infiltration (FIG. 6B). The infiltration of ECs is a critical step in neo-vascularization. […] Cell infiltration is presumed to be ECs although we recognize that other cell types such as immune cells may also be stained.

HUVECs = test: HUVEC migration, Matrigel chemoinvasion assay; type: cell-based, human; conditions: co-incubation with S1P
Experimental: FIG. 5 has two panels, A and B. In panel A, S1P is shown to promote neovascularization through induction of HUVECs tube formation and migration, which is reduced by SPHINGOMAB. […] The number of cells that migrated to the Matrigel membrane were counted in five independent fields.
Experiments were performed as described by Visentin et al. (Cancer Cell 2006 March; 9(3):225-38).

[3] = Stability after thermochallenge (TM); type: physicochemical; conditions: thermochallenge of supernatants
Experimental: The humanized variants were tested for stability after challenge at high temperature. The approximate midpoints of the thermal unfolding transitions (TM) were determined for every humanized variant by subjecting the supernatants to temperatures ranging from 60 to 74° C. These temperatures were chosen based on the denaturation profile observed for the murine antibody molecule after thermochallenging between a broad range of temperatures between 50 and 80° C. The binding properties of each variant were determined before and after thermochallenge.

[4] = tested on: VEGF- or bFGF-induced neovascularization; test: In vivo Matrigel plug assay, VEGF or bFGF plugs, neovascularization; design: species or system mouse; conditions: 25 mg/kg i.p. every 48 hrs, 10 days
Experimental: Endogenous S1P from the blood and surrounding tissue could supply a wound with pro-angiogenic stimuli. The ability of SPHINGOMAB to reduce endogenous S1P in a wound was investigated. Optimally stimulated plugs (Matrigel supplemented with 0.5 μg/mL bFGF or […] VEGF) were implanted into mice. Mice received i.p. injections of 25 mg/kg SPHINGOMAB or saline every 48 hrs starting 1 day prior to Matrigel implantation. Each treatment group (Matrigel, Matrigel plus GF or Matrigel plus GF and administered SPHINGOMAB) consisted of a minimum of 6 mice. After 10 days, the mice were treated with heparin, injected with Isolectin B4-FITC, the plugs excised, embedded in OCT freezing medium and sectioned.

B1: LT1002: murine monoclonal antibody to S1P, IgG1 kappa, hybridoma clone 306D326.26 (antibody, listed as Mus sp., V domains shown)
VH: QAHLQQSDAELVKPGASVKISCKVSGFIFIDHTIHWMKQRPEQGLEWIGCISPRHDITKYNEMFRGKATLTADKSSTTAYIQVNSLTFEDSAVYFCARGGFYGSTIWFDFWGQGTTLTVS
VL: ETTVTQSPASLSMAIGEKVTIRCITTTDIDDDMNWFQQKPGEPPNLLISEGNILRPGVPSRFSSSGYGTDFLFTIENMLSEDVADYYCLQSDNLPFTFGSGTKLEIK
- Specificity (ELISA) ([1]; Table 7): High
- recognition of ceramide-1-phosphate (C1P) ([1]; competitor C1P, listed as anti-S1P mAb): no antibody binding was observed
- cross-reactivity to dihydrosphingosine-1-phosphate (DH-S1P) ([1]; competitor DH-S1P): did cross react
- cross-reactivity to lysophosphatidic acid (LPA) ([1]; competitor LPA, listed as anti-S1P mAb): exhibited no binding
- cross-reactivity to sphingosylphosphorylcholine (SPC) ([1]; listed as SPHINGOMAB): to a lesser extent
- cross-reactivity to sphingosylphosphorylcholine (SPC) ([1]; listed as anti-S1P mAb): binding was somewhat reduced
- EC infiltration into S1P Matrigel plugs [2]: reduced amount of EC infiltration
- effect on S1P-promoted HUVEC migration and BV formation (HUVECs): neutralize these effects of S1P
- TM (approximate midpoint of the thermal unfolding transition) [3]: 65 °C
- decrease in neovascularization of VEGF-containing plugs vs saline-treated [4]: 5 fold
- decrease in neovascularization of bFGF-containing plugs vs saline-treated ([4]; 0.5 μg/mL bFGF): 8.5 fold
